Changes are numbered by the printed parent chain. Names and notes keep the numbering of the source. *1 amine or outer side, *2 acyl side, *3 side chain or, on linkers, in order; H or OH if unused. [ ]: non-standard residue; d: D form. pAMF = para-azidomethylphenylalanine, [N-]=[N+]=NCc1ccc(C[C@H](N[*:1])C(=O)[*:2])cc1
T1: human IL-2Rβγc (on DERL-7 cells, U2OS IL2RB/IL2RG cells, CD25 knockout Kit225-STAT5 cells, primary CD8+ CTLs) (human, UniProt P14784 27-551; P31785 23-369)
T1 sequence (looked up) 1: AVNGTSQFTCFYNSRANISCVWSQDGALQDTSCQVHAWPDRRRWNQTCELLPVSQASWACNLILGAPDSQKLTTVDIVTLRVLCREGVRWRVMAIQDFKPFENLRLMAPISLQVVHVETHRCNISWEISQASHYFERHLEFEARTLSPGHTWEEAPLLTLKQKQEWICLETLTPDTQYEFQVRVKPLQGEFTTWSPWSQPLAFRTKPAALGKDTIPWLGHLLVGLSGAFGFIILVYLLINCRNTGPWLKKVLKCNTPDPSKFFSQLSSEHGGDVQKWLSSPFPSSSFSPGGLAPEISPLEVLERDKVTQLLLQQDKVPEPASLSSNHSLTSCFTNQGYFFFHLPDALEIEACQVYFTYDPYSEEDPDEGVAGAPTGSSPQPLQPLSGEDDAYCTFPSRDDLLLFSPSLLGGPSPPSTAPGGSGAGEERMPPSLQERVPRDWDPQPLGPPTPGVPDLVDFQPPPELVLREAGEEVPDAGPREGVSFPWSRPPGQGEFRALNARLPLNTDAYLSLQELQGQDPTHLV
T1 sequence (looked up) 2: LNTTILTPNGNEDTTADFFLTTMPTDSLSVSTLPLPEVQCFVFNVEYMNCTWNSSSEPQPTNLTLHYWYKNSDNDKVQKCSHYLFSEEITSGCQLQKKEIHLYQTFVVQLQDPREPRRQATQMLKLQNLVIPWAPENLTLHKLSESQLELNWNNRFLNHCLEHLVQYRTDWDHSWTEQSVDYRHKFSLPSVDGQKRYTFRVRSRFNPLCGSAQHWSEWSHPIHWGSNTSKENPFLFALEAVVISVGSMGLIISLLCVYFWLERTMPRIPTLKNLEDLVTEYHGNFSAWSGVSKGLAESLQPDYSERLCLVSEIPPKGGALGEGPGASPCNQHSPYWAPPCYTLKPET

T2: mouse IL-2Rαβγc (on CTLL2-STAT5 reporter cells) (mouse, UniProt P01590 22-268; P16297 27-539; P34902 23-369)
T2 sequence (looked up) 1: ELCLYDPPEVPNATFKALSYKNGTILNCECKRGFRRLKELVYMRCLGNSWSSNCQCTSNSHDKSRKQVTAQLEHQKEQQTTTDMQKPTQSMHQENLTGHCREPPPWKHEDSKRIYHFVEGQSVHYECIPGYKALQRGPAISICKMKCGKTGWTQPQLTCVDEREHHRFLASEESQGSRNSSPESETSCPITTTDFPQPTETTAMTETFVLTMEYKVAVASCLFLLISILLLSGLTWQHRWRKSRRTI
T2 sequence (looked up) 2: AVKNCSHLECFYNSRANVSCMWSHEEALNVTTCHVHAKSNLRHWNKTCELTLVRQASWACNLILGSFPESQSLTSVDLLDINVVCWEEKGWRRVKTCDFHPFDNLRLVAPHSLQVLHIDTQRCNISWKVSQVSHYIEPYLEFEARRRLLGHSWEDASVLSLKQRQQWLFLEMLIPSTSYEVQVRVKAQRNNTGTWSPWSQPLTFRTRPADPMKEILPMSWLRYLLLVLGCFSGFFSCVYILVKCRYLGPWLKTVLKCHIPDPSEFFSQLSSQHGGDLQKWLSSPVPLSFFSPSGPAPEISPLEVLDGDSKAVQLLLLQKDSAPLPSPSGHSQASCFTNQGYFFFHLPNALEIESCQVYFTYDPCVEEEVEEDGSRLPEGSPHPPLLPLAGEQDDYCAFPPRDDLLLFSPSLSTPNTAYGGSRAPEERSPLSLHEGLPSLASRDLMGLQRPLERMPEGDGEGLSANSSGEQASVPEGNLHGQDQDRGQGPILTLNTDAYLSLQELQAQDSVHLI
T2 sequence (looked up) 3: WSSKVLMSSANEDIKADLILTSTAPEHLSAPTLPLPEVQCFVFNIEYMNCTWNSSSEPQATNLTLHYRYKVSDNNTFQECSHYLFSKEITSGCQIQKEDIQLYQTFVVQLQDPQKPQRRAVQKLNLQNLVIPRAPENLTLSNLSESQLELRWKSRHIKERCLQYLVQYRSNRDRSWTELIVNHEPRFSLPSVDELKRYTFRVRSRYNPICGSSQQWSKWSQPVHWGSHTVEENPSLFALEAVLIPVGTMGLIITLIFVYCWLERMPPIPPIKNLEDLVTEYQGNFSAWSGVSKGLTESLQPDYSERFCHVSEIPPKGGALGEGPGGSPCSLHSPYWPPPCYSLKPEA

T3: Biotin-IL-2Rα-His (UniProt P01589 22-213, limits assumed, biotin-labeled (site not stated))
T3 construct: also called biotin-labeled IL-2Rα; not shown: His tag
T3 sequence (looked up): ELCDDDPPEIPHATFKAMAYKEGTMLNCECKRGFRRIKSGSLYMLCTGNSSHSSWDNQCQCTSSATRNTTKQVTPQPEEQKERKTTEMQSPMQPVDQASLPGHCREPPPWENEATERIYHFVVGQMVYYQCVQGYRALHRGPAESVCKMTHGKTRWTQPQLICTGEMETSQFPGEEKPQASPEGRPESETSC

T4: Biotin-IL-2Rβ-His (UniProt P14784 27-239, limits assumed, biotin-labeled (site not stated))
T4 construct: also called biotin-labeled IL-2Rβ; not shown: His tag
T4 sequence (looked up): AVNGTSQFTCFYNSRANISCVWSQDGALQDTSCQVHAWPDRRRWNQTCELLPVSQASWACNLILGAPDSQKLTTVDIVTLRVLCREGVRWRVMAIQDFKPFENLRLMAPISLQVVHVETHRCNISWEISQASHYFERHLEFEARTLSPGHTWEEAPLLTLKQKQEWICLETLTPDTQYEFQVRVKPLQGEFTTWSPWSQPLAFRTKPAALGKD

T5: human IL-2Rαβγc (on Kit225-STAT5 reporter cells, NK-92 cells, primary Treg cells) (human, UniProt P01589 22-272; P14784 27-551; P31785 23-369)
T5 sequence (looked up) 1: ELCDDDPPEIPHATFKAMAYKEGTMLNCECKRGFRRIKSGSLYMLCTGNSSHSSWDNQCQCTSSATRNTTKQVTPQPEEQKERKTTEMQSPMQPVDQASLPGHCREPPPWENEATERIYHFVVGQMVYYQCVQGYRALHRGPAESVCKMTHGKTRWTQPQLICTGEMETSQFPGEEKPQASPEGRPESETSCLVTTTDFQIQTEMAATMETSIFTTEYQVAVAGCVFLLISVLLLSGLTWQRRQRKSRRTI
T5 sequence (looked up) 2: T1 sequence (looked up) 1
T5 sequence (looked up) 3: T1 sequence (looked up) 2

B1: Ald-6HIS_E60T/E61S (ligand)
chain: PTSSSTKKTQLQLEHLLLDLQMILNGINNYKNPKLTRMLTFKFYMPKKATELKHLQCLETSLKPLEEVLNLAQSKNFHLRPRDLISNINVIVLELKGSETTFMCEYADETATIVEFLNRWITFSQSIISTLTGGSHHHHHH
B2: Ald-6HIS_E60T/E61S/P64A (ligand)
chain: B1 chain with P64A
B3: Ald-6HIS_E60T/P64A (ligand)
chain: B1 chain with S61E, P64A
B4: Ald-6HIS_E61S/P64A (ligand)
chain: B1 chain with T60E, P64A
B5: Ald-6HIS_E61S/Y106A (ligand)
chain: B1 chain with T60E, Y106A
B6: Ald_S4pAMF/R37A/F41K (MUT1) (ligand)
chain: PTS[pAMF]STKKTQLQLEHLLLDLQMILNGINNYKNPKLTAMLTKKFYMPKKATELKHLQCLEEELKPLEEVLNLAQSKNFHLRPRDLISNINVIVLELKGSETTFMCEYADETATIVEFLNRWITFSQSIISTLT
modifications: ends and bridges not checked

Target: T1, human IL-2Rβγc (on DERL-7 cells, U2OS …)
Experiment: cell-based or functional assay

Row | Binder | U2OS-IL2Rbg EC50 [nM]
1 | B1 | 1.95
2 | B2 | 1.96
3 | B3 | 0.499
4 | B4 | 0.634
5 | B5 | 2.87

Target: T2, mouse IL-2Rαβγc (on CTLL2-STAT5 …)
Experiment: cell-based or functional assay

Row | Binder | CTLL2-STAT5 EC50 [nM]
6 | B1 | 0.525
7 | B2 | 1.09
8 | B3 | 0.024
9 | B4 | 0.213
10 | B5 | > 7

Target: T3, Biotin-IL-2Rα-His
Experiment: SPR (Biacore T200)

Row | Binder | Kd [nM] | fold reduction over wt [fold]
11 | B1 | 800 | 80
12 | B2 | 2000 | 200
13 | B3 | 60 | 6
14 | B4 | 500 | 50

Target: T4, Biotin-IL-2Rβ-His
Experiment: SPR (Biacore T200)

Row | Binder | Kd [nM] | fold reduction over wt [fold]
15 | B1 | 2000 | 5
16 | B2 | 1000 | 3
17 | B3 | 700 | 2
18 | B4 | 500 | 1
19 | B5 | 2000 | 5

Target: T5, human IL-2Rαβγc (on Kit225-STAT5 …)
Experiment: cell-based or functional assay

Row | Binder | Kit225-STAT5 reporter, fold lower activity than aldesleukin [fold]
20 | B6 | 190
